Reference: a protein production outcome set (Wang et al. 2014)

Assay: label from the status in PepcDB records
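Note: failed if final PepcDB status was selected cloned or expressed and not failed if soluble or beyond.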

Sequence	protein production
MEPNIYQLALAALFGASFVAVSGFFMHFKALNLVLERGKERKENPDGDEPQNPTLVRRRSQVRRKVNDQYGRSPASLPDATPFTDGGGGGGGDTGRSNGHVYVDEIPPGLPRLHTPSEGRASVHGASSIRKTGSFVRPISPKSPVASASAFESVEESDDDDNLTNSEGLDASYLQANGDNEMPADANEEQISMAASSMIRSHSVSGDLHGVQPDPIAADILRKEPEQETFVRLNVPLEVPTSDEVEAYKCLQECLELRKRYVFQETVAPWEKEVISDPSTPKPNTEPFAHYPQGKSDHCFEMQDGVVHVFANKDAKEDLFPVADATAFFTDLHHVLKVIAAGNIRTLCHRRLVLLEQKFNLHLMLNADKEFLAQKSAPHRDFYNVRKVDTHVHHSACMNQKHLLRFIKSKLRKEPDEVVIFRDGTYLTLREVFESLDLTGYDLNVDLLDVHADKSTFHRFDKFNLKYNPCGQSRLREIFLKQDNLIQGRFLGEITKQVFSDLEASKYQMAEYRISIYGRKMSEWDQLASWIVNNDLYSENVVWLIQLPRLYNIYKDMGIVTSFQNILDNIFIPLFEATVDPDSHPQLHVFLKQVVGFDLVDDESKPERRPTKHMPTPAQWTNAFNPAFSYYVYYCYANLYVLNKLRESKGMTTITLRPHSGEAGDIDHLAATFLTCHSIAHGINLRKSPVLQYLYYLAQIGLAMSPLSNNSLFLDYHRNPFPVFFLRGLNVSLSTDDPLQIHLTKEPLVEEYSIAASVWKLSACDLCEIARNSVYQSGFSHALKSHWIGKDYYKRGPDGNDIHKTNVPHIRVEFRDTIWKEEMQQVYLGKAVISDEVVP	not failed
MEPTAPAPTPAATRNTESTAKIVYVLYLLSFAAGITTLIGVVMAYVNEGDAPEGLRTHYRFQIRTFWIGLLYAVVGGLLTIVGIGALILLFVAVWLVIRCVKGLKWLDQRQPVPNPATWLW	failed
MEPTDVSTGTGKVLLLDTKRYGYWKVCMTQIIRGQEDGFKITKPKANWTAEEKLQSKFNARAMKAIFNGVDEDEFKLIQGCKSAKQAWDTLQKSHEGTSSVKRTRLDHIATQFEYLKMEPDEKIVKFSSKISALANEAEVMGKTYKDQKLVKKLLRCLPPKFAAHKAVMRVAGNTDKISFVDLVGMLKLEEMKADQDKVKPSKNIAFNADQGSEQFQEIKDGMALLARNFGKALKRVEIDGERSRGRFSRSENDDLRKKKEIQCYECGGFGHIKPECPITKRKEMKCLKCKGVGHTKFECPNKSKLKEKSLISFSDSESDDEGEELLNFVAFMASSDSSKFMSDTDSDCDEELNPKDKYRVLYDSWVQLSKDKLKLVKEKLTLEAKLANVSTEDKQKLSGITVDGNSQDYYQKKLDCLQKECHRERDRTKLLERELNDKYKQIRMLNKGLESLDKILAMGRTDSQQRGLGYQGYTGKIKKEEGRVINFVSGGSTSETVVRQSYIEPKKQVKSHVEIKRESVVRTRMVGVICCDHCGKRFHMREQCYKFKEKVRTLWNLAKCFIEPSRFCTVWIKKKDLYGDMEAERYNHKLERMYEEEEMHYASCCNQVNKEMQDEARKKDDSFGST	failed
MEQADVTSLIPILITLFLALTTRNVVVGLFAGVVSGVAMLEGTFVEKGPLDSFSALMKSYLLPQLTDSYNAGVILLLVFIGGFVALMEKSGGGVAFAKKVTQWVASKCQAQLSAWFGGVVIFFSDLGTPLIVGPVFRPLFDKLKVSRQKLAFIIDSTSSPVAILIPFIGWGVYIMGLIQKEFTALNVSMSDWDAFIGAIPYQFYAFLAIAIVPIVSFFKLDFGPMAKAEQLAEQGSDFGKEQESMNVFTHKNAKSSFVWAPLLVMLVVLCTILVPHGFPFQKVAGSTFRAALSSAYFFAAFTLIALMAFYGVRKLSDGIQVYLKGMSNMMSVAVILVLAWALSSVGKELGAAAYIAEQAQAGFPYWLLPAVAFLLAGIISFATGSSWGTFAIMMPLVIPTAVAIDAPLLVCIGAVLSGGLFGDHCSPISETTILSSTGAGCEQYEHFRTQLPYAVLNGVIALVCFLLAGVAASPVIVLAAIVAQFAIYYVLSKQKPTEQLESVSAE	failed
MEQEEPCEAKETASSSIEPKTPNPNVPDSIPAIDSDSSLSEEEIVTEKDRGIVTLSPLCKQRIDSASISDCVLVSDDEIIESLYQNLLRVILSLQQIQSVAVVPEIWCFDGCKTPPPSSRNLDSNMVSDTCPGAPMKLTKISRNIDSGLRRKLF	failed
MEQFLDNIKDLEVTTVVRAQEALDKKETATFFIGRKTCPYCRKFAGTLSGVVAETKAHIYFINSEEPSQLNDLQAFRSRYGIPTVPGFVHITDGQINVRCDSSMSAQEIKDFAGL	not failed
MEQKSKFSSATVFSGKLLIASLFILSGILLFARNMGWITAELFNIIVSWHSLLIILGIYSMIRRHFVGGIILVLVGVYFLLGGLSWLPENSQAMVWPLALIIAGVLFLFKSRHRGPWDDKQRMFRDHREWMKHGHHGHAGMNFTDNQQQCESEDGFLRSDNTFGAARHVVLDELFKGAVVRTSCGGTTIDLRHTHIAPGETYIDIDCSWGGVEIYVPSDWKVVFKCNTFFGGCDDKRWQNGNINKESVLVIRGRLSFGGLEVKD	failed
MEQQEEKRKIKAYQRKSKRSKSGSSSIPLDLVSEILLRLPEKSVARFRCVSKPWSSITTEPYFINLLTTRSPRLLLCFKANEKFFVSSIPQHRQTFETWNKSHSYSQLIDRYHMEFSEEMNYFPPTESVNGLICFQESARLIVWNPSTRQLLILPKPNGNSNDLTIFLGYDPVEGKHKVMCMEFSATYDTCRVLTLGSAQKLWRTVKTHNKHRSDYYDSGRCINGVVYHIAYVKDMCVWVLMSFDVRSEIFDMIELPSSDVHKDVLIDYNGRLACVGREIIEKNGIRLWILEKHNKWSSKDFLAPLVHIDKSLSTNKFLLKGFTHAGEIIYVESMFHKSAKIFFYDPVRNTSRRFELKGFTDDEFVLSNEHGYTLHVFPNHVESQISFT	failed
MEQSFFRELLHYQRPKDNPFRLVFAGLVMFSILFLGYINHQLLISSFGSLGIFTFLYYQPLPLKQLMTRLSVVGSYLFLGNLLGMLSTHIAWLIPIVVALVGFGGRFFFEVYDISKPGAFFGVMVTAMGASTSIPLAKIPFMSGCMLLGIGFSILFALVLHFTEKEISVPLAKRSLRERIYQHPEAPLDSIYYSFVLFFAVYISESLHLQNPYWLVVSCASILQGDNLRAIKQRNIQRIFGTTIGLVISAFLLNLALTTFESIVVITILFVTVEYFIRRNYGLAQFFTTPMALMLSLLVRQQYVITLIQFRFLGIVLGSLLGLSSSVAIHRCSNVL	failed
MEQTTIDGIALTLAGPVQLPLKWVGQDELLQQLLAAWMVIDDRDIPFSPRLIGKPGVGKTTLAYAAARRLGRPVYLFQATMDTRPEDLIITPVIGPDGKIQYAASSLVSAMVKGGVLILDEGNRMSEKAWASLAPLLDDRRYVESIITGLRVPAHRDFRIVVTMNEDASTFEVPEYIHSRLQPQIFIDFPEADEELMILKENLPFAPTRILKYVVDFLQRAHAADELYSVRDGINIARYALKMMAATERDAAELLPLAVERVLGDEALRYLALEHHHHHH	failed
MERELGPWRLTFRVRGWLSDEVFGEISRYARYLGRDRGYGLFRIDPERLRGNGLTLWDAIASLEDLGVAVEEDLEALKRAAEEALRVVLELRGGWVYISSRVMLKPILEEEGLSLPYDREARAYRAPPIMYPRLREAFERRGLKVEDRVFPPSSRSLPRPVRFTGELRDYQEEALEAWRKAGGRGVIVLPTGAGKTVVAIAAVAWAGVWSLIVVYTRDHVRQWIDAFRRFTDAHSLVGAYYGEEKRLAPITVTTYQTAYRHIDRLAPLFPFLVFDEAHHIPADKFKRIASASPAPYRMGLSATIEREDGRHEEVYSLVGGVVYSSSPGELTRKGYLAPFVIRRVKVELEEEEKRLYEDLKRKYRILARGRSFEKILEDARRGDPTAIEAIRVNTRMKEIVQLSESKIRAVEKLVREELSRGSKVIVFTQYRRQAEEIARRTGALLLHGGLERRVREATLAKFRALKAGALVVTTVGDEGLDIPDANVGILVSGTGSRRQFIQRLGRLLRPGEGKRAVLYEVIARGTGEELQSRRRRGRG	failed
MERGRSDMEMINNMANCLILLSKAHQNDTKSRVFACKTCNKEFPSFQALGGHRASHRRSAALEGHAPPSPKRVKPVKHECPICGAEFAVGQALGGHMRKHRGGSGGGGGRSLAPATAPVTMKKSGGGNGKRVLCLDLNLTPLENEDLKLELGRFIF	failed
MERIRWLYGFLACILIAILLAPLQIMAQGEFRTSDQPLVYYIPVEQEVERGLEAFLQRSLDSAVEEGADHIVLEINTPGGRVDAAGNMARALRETDIPITAYVIDQALSAGAYIALNADEIVMAPGSTMGSAAVIDSAGNAADEKAQSYWLAEMRNAAEYNDRDPKYALAMADRSIEIPELDISNEELLTLTASQALEVNYAEAIASNRAELLEHLQIDNAFEQEMEVSFAEKLARFVTNPLIIPILLSIGSLGLVLELYSPGFGVPGIMGISALLLFFFGHLIAGFAGYEAMILFIAGFLLILIEVFMPGFGLFGILGIAGMIGGMLLASFSTAWMLVSLGISAVVTTVVAIITFRYFGSRGPWKKMILTESTSSEKGYITNETRQELVGLIGQSLTPLRPSGSGLFGEERLDVVSEGGYIEQGRKIKVVSTSGSRIVVRETDELEHHHHHH	failed
MERKINRREKEKEYEGKHNSLEDTDQGKNCKSTLMTLNVGGYLYITQKQTLTKYPDTFLEGIVNGKILCPFDADGHYFIDRDGLLFRHVLNFLRNGELLLPEGFRENQLLAQEAEFFQLKGLAEEVKSRWEKEQLTPRETTFLEITDNHDRSQGLRIFCNAPDFISKIKSRIVLVSKSRLDGFPEEFSISSNIIRFKYFIKSENGTRLVLKEDNTFVCTLETLKFEAIMMALKCGFRLLTSLDCSKGSIVHSDALHFIK	not failed
MERKISDEECPVRKSMQIFAGKWTLLIIFQINRRIIRYGELKRAIPGISEKMLIDELKFLCGKGLIKKKQYPEVPPRVEYSLTPLGEKVLPIIDEIAKFGMENL	not failed
MERKRYSKRYCKYTEAKISFIDYKDLDMLKHTLSERYKIMPRRLTGNSKKWQERVEVAIKRARHMALIPYIVDRKKVVDSPFKQH	failed
MESAATAVVPPAAAATTATATDDNLQSSDSSSPADAVNRLIHAFSQRQQHLLDKTVPHVLYRWIACLCVVLIYIVRVYFVEGFYIITYAIGIYLLNLIIAFLSPQEDPEASLTSGGSLPTRRSDEYRPFVRRLPEFKFWLSIIRAFIIGFMMTFFEVFDVPVFWPILLFYWVMLFFLTMRKQIQHMIKYRYVPFSFGKKVCVSFSFLPSQN	failed
MESGIFGEGGSLPPLPVLLRGLQDLGLLGKLDIARRATLTGISLCFSVFLQHIGIMWIQVRTMDGKETHTVNSLSRLTKVQELRKKIEELFHVEPQLQRLFYRGKQMEDGHTLFDYDVRLNDTIQLLVRQSLALPLSTKERDSELSDSDSGYGVGHSESDKSSTHGEGTADGDDKTVWEDTDLGLYKVNEYVDVRDNIFGAWFEAQVVQVQKKALSEEEPCSSSAIMAPEDDIMYHIKYDDYPEHGVDIVKAKNVRARARTVIPWEDLEVGQVVMANYNVDYPRKRGFWYDVEICRKRQTRTARELYGNVMLLNDSQLNNCRIIFVDEVLKIELPNERSPLIGSPSRRKSGPSCQYCKDDENKPCRKCACHICGGREAPEKQVLCDECDMAFHLYCLQPPLTCVPPEPEWYCPSCRTDSSEVVQAGEKLKKSKKKAKMASATSSSRRDWGKGMACVGRTTECTIVPANHFGPIPGVPVGTMWRFRVQVSESGVHRPHVAGIHGRSNDGAYSLVLAGGYEDDVDNGNFFTYTGSGGRDLSGNKRTAGQSSDQKLTNNNRALALNCHSPINEKGAEAEDWRQGKPVRVVRNMKGGKHSKYAPAEGNRYDGIYKVVKYWPEKGKSGFIVWRYLLRRDDTEPEPWTREGKDRTRQLGLTMQYPEGYLEALANKEKNRKRPAKALEQGPSSSKIGKSKRKSTGPATTSPRVSKKSKLEPYTLPLQQANLIKEDKGNAKLWDDVLSSLQDGPYQIFLSKVKEAFQCICCQELVFRPVTTVCQHNVCKDCLDRSFRAQVFSCPACRYDLDHSSPTRVNQPLQTILNQLFPGYGSGR	failed
